Assay [1] addresses ΔCT-PxxP bestrophin-1 (human bestrophin-1 lacking the C-terminal proline-rich region between 462 and 575) (human) (UniProt O76090). Description: co-IP; HEK-293 cells co-transfected with wild-type or ΔCTPxxP bestrophin-1 and β3- or His-tagged β4-subunits; IP with anti-bestrophin-1 antibody, blot anti-β3, or IP with anti-His antibody, blot anti-bestrophin-1; relative co-precipitation efficiency by densitometry of lysate, precipitate and non-bound fraction.

The target in assay [2] is calcium channel, voltage-dependent, β4-subunit, His6-tagged (rat, β4-pCDNA3) (Rattus norvegicus) (UniProt D4A055). Described as above.

Two substances from paper PMC3084833 can be followed below.

On to “calcium channel, voltage-dependent, β3-subunit (rat, untagged, β3-pCMV) (from UniProt P54287 1-484) (natural protein)”, for which, in assay [1], the co-precipitation efficiency turned out to be 4%.

With “ΔCT-PxxP bestrophin-1 (human bestrophin-1 lacking the C-terminal proline-rich region between 462 and 575) (from UniProt O76090-1 1-585) (natural protein)”, the co-precipitation efficiency in assay [2] was 4%.
